The text below walks through data of article PMC7467640.

For series [1], the target named is His239 (UniProt position 239, …). As to the kind of experiment: potentiometry. The note with it: 298 K; 0.1 M (NaClO4); none (4 mM HClO4, titrated with carbonate-free NaOH); metal-free peptide, 0.5 mM, argon atmosphere.
Series [2] addresses His224 (UniProt position 224, …). As to the kind of experiment: potentiometry. Particulars: 298 K; 0.1 M (NaClO4); none (4 mM HClO4, titrated with carbonate-free NaOH); metal-free peptide, 0.5 mM, argon atmosphere.

By pKa is commonly meant the negative logarithm of the acid dissociation constant. Higher therefore signals a group that holds its proton tightly.

As for GHFTVNPEIQPGAQRLHE, the pKa is 6.16 in series [1] and 6.76 in series [2].
